Experimental data: article PMC4864278

Tests used:
[1] = target: TRIM32 extended RING domain (UniProt Q13049); experiment: SAXS; batch SAXS, Diamond Light Source beamline B21; at least three dilutions of each construct; concentrations as in Table 2
[2] = target: TRIM32 extended RING domain (UniProt Q13049); experiment: SEC-MALS; SEC-MALLS, Superdex 75 or Superdex 200 10/300 GL, 25°C, 20 mM HEPES pH 7.5, 100 mM NaCl (TRIM32) or 150 mM NaCl (TRIM25), 0.5 mM TCEP, 3 mM NaN3; samples run over a range of concentrations

TRIM32 extended RING domain (from UniProt Q13049 1-93) (domain or fragment), sequence (Q13049 1-93): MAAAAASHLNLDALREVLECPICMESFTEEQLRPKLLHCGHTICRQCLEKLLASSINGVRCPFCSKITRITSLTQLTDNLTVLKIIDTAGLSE

Work on “TRIM32 extended RING domain (from UniProt Q13049 1-93) (domain or fragment)” yielded a stoichiometry N [1] of 2 and a stoichiometry N [2] of 2.
